± gives the standard deviation.
Assay: protein stability index of a GFP-peptide fusion (GPS, HEK-293T) (PSI 1-6); higher = more stable
Details: c terminus: a fixed tail appended
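Note: 24-mer peptide tiles fused after GFP, lentivirally expressed, FACS-sorted into six equal bins by GFP/DsRed ratio, decoded by Illumina sequencing, PSI is the read-weighted mean bin number.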

Sequence TITAPPSRVLQNGGDKLETMPLYL [SCD] has a protein stability index (treatment: DMSO) of 3.5 ± 0.41 and a protein stability index (treatment: MLN4924 1 uM, 8 h) of 3.43 ± 0.29.
TKVRKQEIIKVTEQLIEAISNGDF [CAMK2A] gave a protein stability index (treatment: DMSO) of 2.38 ± 0.32 and a protein stability index (treatment: MLN4924 1 uM, 8 h) of 2.66 ± 0.42.
For TLAALLLNRSESDIRYLLGYVSQQ [FEM1B], the protein stability index (treatment: DMSO) was 2.39 ± 0.42 and the protein stability index (treatment: MLN4924 1 uM, 8 h) was 2.52 ± 0.61.
For TLIMLLSLAAFSVISVVSYLILAL [RTN3], the protein stability index (treatment: DMSO) was 2.58 ± 0.36 and the protein stability index (treatment: MLN4924 1 uM, 8 h) was 2.12 ± 0.11.
Sequence TLNILLYEAQDGRGPDNALLEATG [KCTD10] has a protein stability index (treatment: DMSO) of 2.92 ± 0.21 and a protein stability index (treatment: MLN4924 1 uM, 8 h) of 3.29 ± 0.31.
TLNKCAVMKLEISPHRKRSDDSDE [DLC1] showed a protein stability index (treatment: DMSO) of 4.11 ± 0.31 and a protein stability index (treatment: MLN4924 1 uM, 8 h) of 4.29 ± 0.094.
Work on TMNRRVCVLMLLAAWIGGFLHSLV [OR4A15] yielded a protein stability index (treatment: DMSO) of 2.53 ± 0.36 and a protein stability index (treatment: MLN4924 1 uM, 8 h) of 2.18 ± 0.24.
In the case of TNTRRGSRAPCKVQGLEGIKMAMV [NEK8], the protein stability index (treatment: DMSO) is reported as 2.32 ± 0.25 and the protein stability index (treatment: MLN4924 1 uM, 8 h) is reported as 2.32 ± 0.23.
Work on TNTRSDLDVFGRGDNISDVSKFLE [LUC7L3] yielded a protein stability index (treatment: DMSO) of 4.67 ± 0.16 and a protein stability index (treatment: MLN4924 1 uM, 8 h) of 4.76 ± 0.19.
Work on TPGDCPPGRRDEDAGEGIQCSQRM [TMEM175] yielded a protein stability index (treatment: DMSO) of 5.15 ± 0.37 and a protein stability index (treatment: MLN4924 1 uM, 8 h) of 5.25 ± 0.18.
TPLHRDKTPLHQKHAAFVTPDQKY [MYBL2] showed a protein stability index (treatment: DMSO) of 4.11 ± 0.2 and a protein stability index (treatment: MLN4924 1 uM, 8 h) of 4.08 ± 0.24.
TPSVPPPASQHSTPAGLPPSRAKP [FBF1] showed a protein stability index (treatment: DMSO) of 5.3 ± 0.25 and a protein stability index (treatment: MLN4924 1 uM, 8 h) of 5.22 ± 0.23.
Sequence TQAPPSVILGVTNPFFAKTLQHWP [DENND6A] has a protein stability index (treatment: DMSO) of 2.26 ± 0.24 and a protein stability index (treatment: MLN4924 1 uM, 8 h) of 2.12 ± 0.17.
Work on TQDSARVNPQDGTNTLTRIAENGV [EHMT1] yielded a protein stability index (treatment: DMSO) of 5.11 ± 0.16 and a protein stability index (treatment: MLN4924 1 uM, 8 h) of 5.1 ± 0.19.
For TQEKKRLSRTNEELLWKLQTGDPT [MTUS2], the protein stability index (treatment: DMSO) was 4.46 ± 0.34 and the protein stability index (treatment: MLN4924 1 uM, 8 h) was 4.36 ± 0.11.
Work on TRRVTFEADENENITVVKGIRLSE [CHCHD3] yielded a protein stability index (treatment: DMSO) of 4.29 ± 0.13 and a protein stability index (treatment: MLN4924 1 uM, 8 h) of 4.47 ± 0.23.
For TSAAYRYYIDDVFHALVREIRRKE [RIT1], the protein stability index (treatment: DMSO) was 2.16 ± 0.36 and the protein stability index (treatment: MLN4924 1 uM, 8 h) was 2.35 ± 0.26.
In the case of TSEKLGEWNEKVTQSDLYKKTQET [TPD52L2], the protein stability index (treatment: DMSO) is reported as 5.13 ± 0.28 and the protein stability index (treatment: MLN4924 1 uM, 8 h) is reported as 5.1 ± 0.063.
For TSIEPSKSSIIPFRALKRPLQFLG [ZER1], the protein stability index (treatment: DMSO) was 2.42 ± 0.38 and the protein stability index (treatment: MLN4924 1 uM, 8 h) was 2.22 ± 0.16.
For TSQEIFRQRFRHLRYQETPGPREA [ZNF232], the protein stability index (treatment: DMSO) was 3.63 ± 0.36 and the protein stability index (treatment: MLN4924 1 uM, 8 h) was 3.6 ± 0.28.
Work on TSQFLSLQCLQALYVDSLFFLRGR [PRAME] yielded a protein stability index (treatment: DMSO) of 2.49 ± 0.67 and a protein stability index (treatment: MLN4924 1 uM, 8 h) of 2.96 ± 0.82.
TTMNYPLWSQSYEDSSNQEEEGPS [MAGEA3] showed a protein stability index (treatment: DMSO) of 5.43 ± 0.11 and a protein stability index (treatment: MLN4924 1 uM, 8 h) of 5.36 ± 0.13.
Sequence TVGCSSQHTPDQANSDRASIGRRR [PLEKHN1] has a protein stability index (treatment: DMSO) of 5.04 ± 0.36 and a protein stability index (treatment: MLN4924 1 uM, 8 h) of 5.02 ± 0.15.
With TVQHGAVYSLEPRLCGGKGGFGSM [SDE2] the protein stability index (treatment: DMSO) was 2.33 ± 0.37 and the protein stability index (treatment: MLN4924 1 uM, 8 h) was 2.39 ± 0.29.
In the case of TVRFCILGKESFYDTFHTVADMMY [HACD3], the protein stability index (treatment: DMSO) is reported as 2.8 ± 0.69 and the protein stability index (treatment: MLN4924 1 uM, 8 h) is reported as 2.85 ± 0.78.
With TVVKSLIDNSSEIEDEDQILENSS [FAN1] the protein stability index (treatment: DMSO) was 5.202 ± 0.02 and the protein stability index (treatment: MLN4924 1 uM, 8 h) was 5.38 ± 0.13.
Work on VAAALRYLQIFATRRSCIDESQIS [FAM189A2] yielded a protein stability index (treatment: DMSO) of 2.37 ± 0.37 and a protein stability index (treatment: MLN4924 1 uM, 8 h) of 2.41 ± 0.17.
In the case of VAEITKQLPPVVPVSKPGALRRSL [TCAP], the protein stability index (treatment: DMSO) is reported as 5.15 ± 0.15 and the protein stability index (treatment: MLN4924 1 uM, 8 h) is reported as 5.2 ± 0.29.
Sequence VAIFIMSLNKRHSSGDGNSKLKSE [MFSD9] has a protein stability index (treatment: DMSO) of 2.77 ± 1.2 and a protein stability index (treatment: MLN4924 1 uM, 8 h) of 2.16 ± 0.12.
In the case of VANRHGHTCLMISCYKGHREIARY [FEM1A], the protein stability index (treatment: DMSO) is reported as 2.54 ± 0.5 and the protein stability index (treatment: MLN4924 1 uM, 8 h) is reported as 2.41 ± 0.67.
VAPATMGSARSHASSRASENQSPS [ZBTB22] gave a protein stability index (treatment: DMSO) of 4.96 ± 0.073 and a protein stability index (treatment: MLN4924 1 uM, 8 h) of 5.07 ± 0.14.
Sequence VASLERFSTYTSDKDENKLSEASG [ZC3H15] has a protein stability index (treatment: DMSO) of 5.01 ± 0.42 and a protein stability index (treatment: MLN4924 1 uM, 8 h) of 4.96 ± 0.2.
VDGPDLEMLTGQERVALANRKREC [FKBP8] gave a protein stability index (treatment: DMSO) of 4.96 ± 0.16 and a protein stability index (treatment: MLN4924 1 uM, 8 h) of 5.14 ± 0.2.
Work on VDYTGQAKAQVRKAVQYEEKNPCR [STX11] yielded a protein stability index (treatment: DMSO) of 4.37 ± 0.17 and a protein stability index (treatment: MLN4924 1 uM, 8 h) of 4.59 ± 0.18.
Work on VEISRRLRHSNPRADPLVCATGLL [SPNS1] yielded a protein stability index (treatment: DMSO) of 2.22 ± 0.11 and a protein stability index (treatment: MLN4924 1 uM, 8 h) of 2.31 ± 0.32.
With VEKQGDTIEYLKRHNALLSKRLLA [TMEM192] the protein stability index (treatment: DMSO) was 2.87 ± 0.13 and the protein stability index (treatment: MLN4924 1 uM, 8 h) was 2.93 ± 0.27.
VEQGERALERRRRALQEEERAAAQ [ZBED3] gave a protein stability index (treatment: DMSO) of 5.5 ± 0.2 and a protein stability index (treatment: MLN4924 1 uM, 8 h) of 5.29 ± 0.38.
With VESLKRFCASTRLPPTPLLLFPEE [AUP1] the protein stability index (treatment: DMSO) was 2.81 ± 0.35 and the protein stability index (treatment: MLN4924 1 uM, 8 h) was 3.01 ± 0.35.
Sequence VEVDENAYRCGSGMQMAEDSKSLK [NET1] has a protein stability index (treatment: DMSO) of 4.98 ± 0.26 and a protein stability index (treatment: MLN4924 1 uM, 8 h) of 4.99 ± 0.31.
In the case of VFPPEVPISEKAKDLILRFCIDSE [STK38L], the protein stability index (treatment: DMSO) is reported as 3.06 ± 0.35 and the protein stability index (treatment: MLN4924 1 uM, 8 h) is reported as 3.32 ± 0.42.
For VGKSEILESLQDGAAESPYSHLGG [RAB40A], the protein stability index (treatment: DMSO) was 4.56 ± 0.27 and the protein stability index (treatment: MLN4924 1 uM, 8 h) was 4.46 ± 0.19.
VGPAEPTLVNFHLKRSIPQVSPVR [CPN1] gave a protein stability index (treatment: DMSO) of 3.44 ± 0.17 and a protein stability index (treatment: MLN4924 1 uM, 8 h) of 3.4 ± 0.32.
Sequence VGQDNGAVMEFHVSEDFNKMNFIK [WDFY1] has a protein stability index (treatment: DMSO) of 3.29 ± 1.1 and a protein stability index (treatment: MLN4924 1 uM, 8 h) of 3.14 ± 0.36.
VIFQREQESKNQVHRRGEYNVYST [PPP2R2B] gave a protein stability index (treatment: DMSO) of 3.06 ± 0.14 and a protein stability index (treatment: MLN4924 1 uM, 8 h) of 3.04 ± 0.23.
VISVVSYLILALLSVTISFRIYKS [RTN3] gave a protein stability index (treatment: DMSO) of 3.21 ± 0.65 and a protein stability index (treatment: MLN4924 1 uM, 8 h) of 2.8 ± 0.29.

Source: the supplement of paper PMC10567573
